Values quoted from earlier work, collected in PMC10404613.

Target: UBC9 (Homo sapiens) (UniProt P63279)
Chain of UniProt P63279 (P63279 2-158): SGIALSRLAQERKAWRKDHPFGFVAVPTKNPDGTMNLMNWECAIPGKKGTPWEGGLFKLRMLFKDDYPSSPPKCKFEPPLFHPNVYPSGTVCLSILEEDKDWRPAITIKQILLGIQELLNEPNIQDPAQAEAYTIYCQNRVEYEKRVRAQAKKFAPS

For SUMO1 (from UniProt P63165), the Kd is given as 100 nM.
